B1: ep4-Ras03 (antibody, part only; not given: RT22 heavy chain, light constant, V domains shown, not shown: another chain or arm of the molecule; a dimerising Fc or GST)
VL: EHLHCLGSLCWSMGSSSNDIQMTQSPSSLSASVGDRVTITCKSSQSLLNSRDGKNYLAWYQQKPGKAPKLLIYWASTRESGVPSRFSGSGSGTDFTLTISSLQPEDFATYFCQQYWYWMYTFGQGTKVEIK
modifications: chain 1: disulfide bond Cys5-Cys10 closes the cyclic peptide
B2: ep3-Ras03 (antibody, part only; not given: RT22 heavy chain, light constant, V domains shown, not shown: another chain or arm of the molecule; a dimerising Fc or GST)
VL: B1 VL with H2N, H4Q, L6I, S8N
modifications: chain 1: disulfide bond Cys5-Cys10 closes the cyclic peptide
B3: ep7-Ras03 (antibody, part only; not given: RT22 heavy chain, light constant, V domains shown, not shown: another chain or arm of the molecule; a dimerising Fc or GST)
VL: B1 VL with E1D, H2N, H4R, L6I, S8N, L9I
modifications: chain 1: disulfide bond Cys5-Cys10 closes the Ep7 cyclic peptide
B4: ep6-Ras03 (antibody, part only; not given: RT22 heavy chain, light constant, V domains shown, not shown: another chain or arm of the molecule; a dimerising Fc or GST)
VL: B1 VL with E1N, H2N, H4R, L6I, S8N, L9I
modifications: chain 1: disulfide bond Cys5-Cys10 closes the Ep6 cyclic peptide
B5: 5#3-Ras03 (antibody, part only; not given: RT22 heavy chain, constant regions, V domains shown, not shown: another chain or arm of the molecule; a dimerising Fc or GST; large carriers; small tags and cut ends)
VL: SRDETCTPRGDTFAICMGSSSNDIQMTQSPSSLSASVGDRVTITCKSSQSLLNSRDGKNYLAWYQQKPGKAPKLLIYWASTRESGVPSRFSGSGSGTDFTLTISSLQPEDFATYFCQQYWYWMYTFGQGTKVEIK
modifications: chain 1: disulfide bond Cys6-Cys16 closes the 5#3 cyclic peptide
B6: 5#4-Ras03 (antibody, part only; not given: RT22 heavy chain, constant regions, V domains shown, not shown: another chain or arm of the molecule; a dimerising Fc or GST; large carriers; small tags and cut ends)
VL: EHATNCTTRGDTFVVLCGLGMGSSSNDIQMTQSPSSLSASVGDRVTITCKSSQSLLNSRDGKNYLAWYQQKPGKAPKLLIYWASTRESGVPSRFSGSGSGTDFTLTISSLQPEDFATYFCQQYWYWMYTFGQGTKVEIK
modifications: chain 1: disulfide bond Cys6-Cys17 closes the 5#4 cyclic peptide
B7: in4-Ras03 (antibody, part only; not given: RT22 heavy chain, light constant, V domains shown, not shown: another chain or arm of the molecule; a dimerising Fc or GST)
VL: DGVRQCRGDCFDGPLMGSSSNDIQMTQSPSSLSASVGDRVTITCKSSQSLLNSRDGKNYLAWYQQKPGKAPKLLIYWASTRESGVPSRFSGSGSGTDFTLTISSLQPEDFATYFCQQYWYWMYTFGQGTKVEIK
modifications: chain 1: disulfide bond Cys6-Cys10 closes the in4 cyclic peptide
B8: 5#2-Ras03 (antibody, part only; not given: RT22 heavy chain, constant regions, V domains shown, not shown: another chain or arm of the molecule; a dimerising Fc or GST; large carriers; small tags and cut ends)
VL: ASYNDCQSRGDTFCVADMGSSSNDIQMTQSPSSLSASVGDRVTITCKSSQSLLNSRDGKNYLAWYQQKPGKAPKLLIYWASTRESGVPSRFSGSGSGTDFTLTISSLQPEDFATYFCQQYWYWMYTFGQGTKVEIK
modifications: chain 1: disulfide bond Cys6-Cys14 closes the 5#2 cyclic peptide
B9: epRas03 (4-8) (antibody, part only; not given: RT22 heavy chain, light constant, V domains shown, not shown: another chain or arm of the molecule; a dimerising Fc or GST)
VL: B1 VL with E1R, H2N, H4L, L6I, S8N, S12P
modifications: chain 1: disulfide bond Cys5-Cys10 closes the cyclic peptide
B10: epRas03 (4-19) (antibody, part only; not given: RT22 heavy chain, light constant, V domains shown, not shown: another chain or arm of the molecule; a dimerising Fc or GST)
VL: B1 VL with E1R, H2N, H4R, L6I, S8N, L9I
modifications: chain 1: disulfide bond Cys5-Cys10 closes the cyclic peptide
B11: epRas03 (4-27) (antibody, part only; not given: RT22 heavy chain, light constant, V domains shown, not shown: another chain or arm of the molecule; a dimerising Fc or GST)
VL: B1 VL with E1R, H4W, S8R, S12P
modifications: chain 1: disulfide bond Cys5-Cys10 closes the cyclic peptide
B12: epRas03 (4-14) (antibody, part only; not given: RT22 heavy chain, light constant, V domains shown, not shown: another chain or arm of the molecule; a dimerising Fc or GST)
VL: B1 VL with E1R, H2N, L6I, S8N, S12P
modifications: chain 1: disulfide bond Cys5-Cys10 closes the cyclic peptide
B13: epRas03 (4-13) (antibody, part only; not given: RT22 heavy chain, light constant, V domains shown, not shown: another chain or arm of the molecule; a dimerising Fc or GST)
VL: B1 VL with E1R, H2N, H4Q, L6I, G7R, S8N, L9I
modifications: chain 1: disulfide bond Cys5-Cys10 closes the cyclic peptide
B14: epRas03 (4-12) (antibody, part only; not given: RT22 heavy chain, light constant, V domains shown, not shown: another chain or arm of the molecule; a dimerising Fc or GST)
VL: B1 VL with E1R, H2N, H4L, G7R, S8R, L9I, S12P
modifications: chain 1: disulfide bond Cys5-Cys10 closes the cyclic peptide
B15: 6#8-Ras03 (antibody, part only; not given: RT22 heavy chain, light constant, V domains shown, not shown: another chain or arm of the molecule; a dimerising Fc or GST)
VL: FPNNQCQHRGDLFALCADMGSSSNDIQMTQSPSSLSASVGDRVTITCKSSQSLLNSRDGKNYLAWYQQKPGKAPKLLIYWASTRESGVPSRFSGSGSGTDFTLTISSLQPEDFATYFCQQYWYWMYTFGQGTKVEIK
modifications: chain 1: disulfide bond Cys6-Cys16 closes the cyclic peptide
B16: 6#4-Ras03 (antibody, part only; not given: RT22 heavy chain, light constant, V domains shown, not shown: another chain or arm of the molecule; a dimerising Fc or GST)
VL: ESFRPCQYRGDLFVLCFPSDMGSSSNDIQMTQSPSSLSASVGDRVTITCKSSQSLLNSRDGKNYLAWYQQKPGKAPKLLIYWASTRESGVPSRFSGSGSGTDFTLTISSLQPEDFATYFCQQYWYWMYTFGQGTKVEIK
modifications: chain 1: disulfide bond Cys6-Cys16 closes the cyclic peptide
B17: SFITGv6-Ras03 (antibody, part only; not given: RT22 heavy chain, constant regions, V domains shown, not shown: another chain or arm of the molecule; a dimerising Fc or GST; large carriers; small tags and cut ends)
VL: GRCTFRGDLMQLCYPDMGSSSNDIQMTQSPSSLSASVGDRVTITCKSSQSLLNSRDGKNYLAWYQQKPGKAPKLLIYWASTRESGVPSRFSGSGSGTDFTLTISSLQPEDFATYFCQQYWYWMYTFGQGTKVEIK
modifications: chain 1: disulfide bond Cys3-Cys13 closes the SFITGv6 cyclic peptide
B18: 6#2-Ras03 (antibody, part only; not given: RT22 heavy chain, constant regions, V domains shown, not shown: another chain or arm of the molecule; a dimerising Fc or GST; large carriers; small tags and cut ends)
VL: HVEFPCTRRGDLFVLCEGSMGSSSNDIQMTQSPSSLSASVGDRVTITCKSSQSLLNSRDGKNYLAWYQQKPGKAPKLLIYWASTRESGVPSRFSGSGSGTDFTLTISSLQPEDFATYFCQQYWYWMYTFGQGTKVEIK
modifications: chain 1: disulfide bond Cys6-Cys16 closes the 6#2 cyclic peptide
B19: TMab4-WYW (antibody, human IgG1, V domains shown)
VH: EVQLVESGGGLVQPGGSLRLSCAASGYTFTSYVMHWVRQAPGKGLEWVSAINPYNDGNYYADSVKGRFTISRDNSRKTLYLQMNSLRAEDTAVYYCARGAYKRGYAMDYWGQGTTVTVSS
VL: DLVMTQSPSSLSASVGDRVTITCKSSQSLFNSRTRKNYLAWYQQKPGKAPKLLIYWASTRESGVPSRFSGSGSGTDFTLTISSLQPEDFATYYCQQYWYWMYTFGQGTKVEIKR
B20: CT03c (antibody, V domains shown)
VH: B19 VH
VL: B19 VL with F30L, R33D, T34D, K36N, N37T, A57L, T59Y, E61A, Y93F
B21: CT03a (antibody, V domains shown)
VH: B19 VH
VL: B19 VL with F30L, Y93F
B22: CT03d (antibody, V domains shown)
VH: B19 VH
VL: B19 VL with F30L, R35G, N37T, Y93F

Experimental findings from patent US20190389910A1 (ORUM THERAPEUTICS, published 2019) are described below.

Positions count from the first letter of the chain named.

For the first assay, the target named is human recombinant EpCAM antigen (extracellular domain, residues 1 to 265, fused with 6×His tag and Avi-tag) (human) (UniProt P16422). Nature of the assay: SPR (Biacore 2000), EpCAM on CM5 chip (about 367 RU), antibody 6.25-100 nM as analyte.
Chain of human recombinant EpCAM antigen (extracellular domain, residues 1 to 265, fused with 6×His tag and Avi-tag) (human) (P16422 24-265 limits assumed, form in doubt): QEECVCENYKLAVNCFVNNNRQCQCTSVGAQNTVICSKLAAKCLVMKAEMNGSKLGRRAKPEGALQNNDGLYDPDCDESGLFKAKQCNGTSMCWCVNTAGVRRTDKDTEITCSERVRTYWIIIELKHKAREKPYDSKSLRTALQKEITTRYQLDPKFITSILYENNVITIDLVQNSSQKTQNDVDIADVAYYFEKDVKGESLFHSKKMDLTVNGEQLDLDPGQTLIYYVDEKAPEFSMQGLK
A word on the Kd: it is the constant that tells how readily two partners part at equilibrium. What is called koff is the rate constant with which the complex falls apart. What is called kon is the second-order rate constant of association. Consider B1, for which the Kd amounted to 12.4 nM, the koff was found to be 0.00905 s⁻¹ and the kon was 728000 M⁻¹ s⁻¹.

On to B2, for which the Kd came out at 2.11 nM, the koff was 0.0036 s⁻¹ and the on-rate constant (kon) came to 1.7e+06 M⁻¹ s⁻¹.

Take B3: the Kd was 4.35 nM and the kon was found to be 1.36e+06 M⁻¹ s⁻¹.

Turning to B4, the Kd came out at 1.86 nM and the kon turned out to be 3.02e+06 M⁻¹ s⁻¹.

A further assay deals with human recombinant integrin αvβ5 (αv extracellular domain-acidic leucine zipper-His×6 with β5 extracellular domain-basic leucine zipper) (human) (UniProt P06756). Nature of the assay: BLI (Octet), antibody captured on anti-human IgG Fc (AHC) biosensor, integrin αvβ5 3.1-100 nM as analyte, divalent cations.
Chain of human recombinant integrin αvβ5 (αv extracellular domain-acidic leucine zipper-His×6 with β5 extracellular domain-basic leucine zipper) (human) (P06756 other isoform, or with tags, fused parts or gaps, chain 1 of 2): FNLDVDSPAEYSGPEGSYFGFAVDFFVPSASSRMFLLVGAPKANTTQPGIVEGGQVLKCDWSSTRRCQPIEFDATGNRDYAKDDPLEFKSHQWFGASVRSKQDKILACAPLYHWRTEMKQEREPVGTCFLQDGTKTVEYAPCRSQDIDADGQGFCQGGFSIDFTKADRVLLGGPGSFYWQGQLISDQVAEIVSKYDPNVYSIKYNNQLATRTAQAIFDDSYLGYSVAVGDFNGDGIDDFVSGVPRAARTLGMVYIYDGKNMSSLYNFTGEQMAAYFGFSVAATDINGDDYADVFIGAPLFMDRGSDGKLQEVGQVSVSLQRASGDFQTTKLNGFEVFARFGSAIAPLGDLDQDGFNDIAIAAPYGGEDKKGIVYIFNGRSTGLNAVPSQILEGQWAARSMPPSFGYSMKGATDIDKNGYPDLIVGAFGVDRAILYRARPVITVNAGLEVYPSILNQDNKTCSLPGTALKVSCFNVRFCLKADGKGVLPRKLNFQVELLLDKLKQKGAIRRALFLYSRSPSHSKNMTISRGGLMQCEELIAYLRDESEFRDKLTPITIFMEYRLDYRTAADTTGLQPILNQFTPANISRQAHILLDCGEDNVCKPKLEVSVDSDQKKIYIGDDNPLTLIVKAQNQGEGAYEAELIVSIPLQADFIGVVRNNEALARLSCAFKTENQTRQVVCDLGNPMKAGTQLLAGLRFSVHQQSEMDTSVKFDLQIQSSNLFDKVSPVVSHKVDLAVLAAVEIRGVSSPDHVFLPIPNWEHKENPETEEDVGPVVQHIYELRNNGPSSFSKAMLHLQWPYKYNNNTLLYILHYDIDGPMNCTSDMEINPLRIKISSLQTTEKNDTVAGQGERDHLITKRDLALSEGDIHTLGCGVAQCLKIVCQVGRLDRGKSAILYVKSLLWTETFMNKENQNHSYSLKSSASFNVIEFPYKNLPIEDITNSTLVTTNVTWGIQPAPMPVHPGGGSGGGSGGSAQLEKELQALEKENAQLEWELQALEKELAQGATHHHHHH
Chain of human recombinant integrin αvβ5 (αv extracellular domain-acidic leucine zipper-His×6 with β5 extracellular domain-basic leucine zipper) (human) (chain, as listed by the source, chain 2 of 2): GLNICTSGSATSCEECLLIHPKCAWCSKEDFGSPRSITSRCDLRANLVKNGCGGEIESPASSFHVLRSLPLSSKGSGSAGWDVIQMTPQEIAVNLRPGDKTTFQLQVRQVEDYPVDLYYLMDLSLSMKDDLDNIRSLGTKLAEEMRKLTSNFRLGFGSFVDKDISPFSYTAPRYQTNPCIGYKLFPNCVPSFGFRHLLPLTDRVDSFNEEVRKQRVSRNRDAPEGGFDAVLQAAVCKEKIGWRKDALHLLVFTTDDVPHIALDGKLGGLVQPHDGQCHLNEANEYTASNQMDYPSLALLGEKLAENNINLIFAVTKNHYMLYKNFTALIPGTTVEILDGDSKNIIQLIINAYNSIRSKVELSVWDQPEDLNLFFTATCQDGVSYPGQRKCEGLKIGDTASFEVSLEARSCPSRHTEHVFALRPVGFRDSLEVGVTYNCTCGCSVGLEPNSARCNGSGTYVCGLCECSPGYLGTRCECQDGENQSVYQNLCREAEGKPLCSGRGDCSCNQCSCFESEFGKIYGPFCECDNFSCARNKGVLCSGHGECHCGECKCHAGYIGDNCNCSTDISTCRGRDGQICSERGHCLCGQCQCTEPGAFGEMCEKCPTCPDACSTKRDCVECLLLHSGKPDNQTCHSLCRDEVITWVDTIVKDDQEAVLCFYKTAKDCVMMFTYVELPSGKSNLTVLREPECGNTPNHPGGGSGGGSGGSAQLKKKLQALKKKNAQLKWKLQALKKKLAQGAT
Take B5: the Kd came to 4.88 nM, the koff is 0.000163 s⁻¹ and the kon was found to be 33300 M⁻¹ s⁻¹.

For the molecule B6, the Kd was determined as 7.01 nM, the koff is 0.000158 s⁻¹ and the kon was determined as 22500 M⁻¹ s⁻¹.

For B7, the Kd is 2.06 nM, the koff was 0.000166 s⁻¹ and the association rate constant (kon) worked out at 80600 M⁻¹ s⁻¹.

For B8, the Kd turned out to be 2.63 nM, the koff came out at 0.00012 s⁻¹ and the kon came to 45500 M⁻¹ s⁻¹.

A further assay addresses human recombinant EpCAM antigen (extracellular domain, residues 1 to 265, fused with 6×His tag and Avi-tag) (human) (UniProt P16422). Nature of the assay: SPR (Biacore 2000), EpCAM on CM5 chip (about 211 RU), antibody 6.25-100 nM as analyte.
On to B9, for which the equilibrium dissociation constant (Kd) is 3.04 nM, the koff turned out to be 0.00224 s⁻¹ and the kon amounted to 737000 M⁻¹ s⁻¹.

As to B10, the equilibrium dissociation constant (Kd) was determined as 0.313 nM, the koff stood at 0.00168 s⁻¹ and the kon was 5.38e+06 M⁻¹ s⁻¹.

As for B11, the Kd turned out to be 9.94 nM, the koff is 0.00421 s⁻¹ and the kon was determined as 424000 M⁻¹ s⁻¹.

Take B12: the Kd was 183 nM, the koff was 0.00205 s⁻¹ and the kon worked out at 11200 M⁻¹ s⁻¹.

For the molecule B13, the Kd amounted to 0.185 nM, the koff was found to be 0.00105 s⁻¹ and the kon worked out at 5.69e+06 M⁻¹ s⁻¹.

As to B14, the Kd is 17.7 nM, the koff was 0.00117 s⁻¹ and the kon was 66400 M⁻¹ s⁻¹.

The target in a further assay is human recombinant integrin αvβ6 (αv extracellular domain-acidic leucine zipper-His×6 with β6 extracellular domain-basic leucine zipper) (human) (UniProt P06756). Nature of the assay: BLI (Octet), antibody captured on anti-human IgG Fc (AHC) biosensor, integrin αvβ6 3.1-100 nM as analyte, divalent cations. A general note: BLI is a label-free optical method that tracks binding on a fibre tip over time.
Chain of human recombinant integrin αvβ6 (αv extracellular domain-acidic leucine zipper-His×6 with β6 extracellular domain-basic leucine zipper) (human) (P06756 other isoform, or with tags, fused parts or gaps, chain 1 of 2): as the sequence (P06756 other isoform, or with tags, fused parts or gaps, chain 1 of 2) above
Chain of human recombinant integrin αvβ6 (αv extracellular domain-acidic leucine zipper-His×6 with β6 extracellular domain-basic leucine zipper) (human) (chain, as listed by the source, chain 2 of 2): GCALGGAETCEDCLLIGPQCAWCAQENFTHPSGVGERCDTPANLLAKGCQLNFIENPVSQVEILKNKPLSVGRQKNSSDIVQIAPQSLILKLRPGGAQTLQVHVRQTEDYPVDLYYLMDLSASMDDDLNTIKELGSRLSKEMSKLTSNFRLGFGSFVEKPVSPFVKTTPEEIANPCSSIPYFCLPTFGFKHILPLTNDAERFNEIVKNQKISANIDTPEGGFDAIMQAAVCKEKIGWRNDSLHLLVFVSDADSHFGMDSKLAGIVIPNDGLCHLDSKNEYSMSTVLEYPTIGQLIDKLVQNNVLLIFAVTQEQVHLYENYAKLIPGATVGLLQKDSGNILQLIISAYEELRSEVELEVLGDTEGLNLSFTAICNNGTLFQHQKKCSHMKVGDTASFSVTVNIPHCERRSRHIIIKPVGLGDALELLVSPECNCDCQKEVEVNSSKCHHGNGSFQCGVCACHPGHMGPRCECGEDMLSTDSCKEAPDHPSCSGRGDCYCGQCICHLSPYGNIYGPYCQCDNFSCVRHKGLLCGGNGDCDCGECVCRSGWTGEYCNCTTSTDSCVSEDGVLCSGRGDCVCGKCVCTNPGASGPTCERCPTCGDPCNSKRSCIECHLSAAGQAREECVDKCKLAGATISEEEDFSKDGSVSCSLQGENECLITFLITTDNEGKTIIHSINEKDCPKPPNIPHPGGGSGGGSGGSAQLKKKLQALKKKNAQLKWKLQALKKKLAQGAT
Turning to B15, the Kd stood at 0.952 nM, the koff stood at 0.000175 s⁻¹ and the kon was determined as 184000 M⁻¹ s⁻¹.

For the molecule B16, the Kd turned out to be 1.52 nM, the koff is 0.000265 s⁻¹ and the kon was 175000 M⁻¹ s⁻¹.

In the case of B17, the Kd was 0.457 nM, the koff came to 0.000128 s⁻¹ and the kon turned out to be 279000 M⁻¹ s⁻¹.

B18: the Kd amounted to 0.722 nM, the koff is 0.000153 s⁻¹ and the kon is 212000 M⁻¹ s⁻¹.

For the molecule B7, the Kd turned out to be 12.1 nM, the koff is 0.00703 s⁻¹ and the kon is 583000 M⁻¹ s⁻¹.

The next assay deals with heparan sulfate proteoglycan (HSPG) expressed on HeLa cells. As to the kind of experiment: cell-based or functional assay.
Turning to B19, the fluorescence intensity of antibody located in the cytoplasm (confocal microscopy, HeLa cells, 1 µM, 6 h) was 100%.

The molecule B20 displayed a fluorescence intensity of antibody located in the cytoplasm (confocal microscopy, HeLa cells, 1 µM, 6 h) of 31.8%.

For the molecule B21, the fluorescence intensity of antibody located in the cytoplasm (confocal microscopy, HeLa cells, 1 µM, 6 h) stood at 40.1%.

B22 had a fluorescence intensity of antibody located in the cytoplasm (confocal microscopy, HeLa cells, 1 µM, 6 h) of 26.3%.
